Source: the domain aggregation screens of Martell et al. (2025)

Experiment: soluble fraction after stress (log2 fold change); higher = more stays soluble; pooled small domains, quantitative proteomics
Details: stress: 75 degC
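Also: 20 min heating vs room temperature control held 20 min.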

Q: With “HMDRMINYSPIVAKVPQDDYTTKVYNIPIYSELTVVDKISEPEPLIAPIYRFKYITPEDEEIEFDIPV” as the sequence, how does the “soluble fraction (log2)” value read?
A: -0.00941

Q: Which “soluble fraction (log2)” value does the source give for “HMDRMMQPETWGRVYQWITDDPQVPDREEVLTLIKYHYGDFGKLMKLLHRLNEGKAWTYLSEHIFPRM” here?
A: -0.254

Q: With “HMDRNEFVSTLRAALTGAVSPAIVEDNVRYYQNYISQEIASGKSEKEVLDGLGDPRLIARTIIDT” as the sequence, how does the “soluble fraction (log2)” value read?
A: 0.0747

Q: Which “soluble fraction (log2)” value does the source give for “HMDRNIVYSDFIRSVNQGQVSEVLVQGDNIRGRYLNGKVFQTFAPKDPSLISTLRNKGVRISAEPA” here?
A: 0.00952

Q: Which “soluble fraction (log2)” value does the source give for “HMDRRSTTLQDIYTRIDAEEISEALELIPKLGEIEFEQNRAEIAEAAGVRPAVLDKLRKQAAKQENNKK” here?
A: -0.00584

Q: With “HMDRSAQVLFLEHARSRLPQRIQWAEELAELLSIGIDSAYRRIRGETALTFNEAVSVSRKYDISLDYLFK” as the sequence, how does the “soluble fraction (log2)” value read?
A: -3.79

Q: Which “soluble fraction (log2)” value does the source give for “HMDRSKREKEQQELMLKVQQIFDDNQQRFGAEKIRTVLAQNGVRVSVKRVSAIMQELNLRSIR” here?
A: -2.36

Q: With “HMDRVMPVPEALIGMRFDIAVSRMLGVSRSQAAAYIDRGQVSIAGRGSQRSAQKSEKLVQGDSIEVAIA” as the sequence, how does the “soluble fraction (log2)” value read?
A: -1.39

Q: For “HMDRWSLLTLTTLAGGTLRFTELKRAIGDISQRMLAQTLRTLEREGYVSRKVYATIPPKVEYRLTALGQSL”, which “soluble fraction (log2)” value is on record?
A: -3.21

Q: Which “soluble fraction (log2)” value does the source give for “HMDRYAVRAEELAAALAQYHRHVGVYPENLEDLIAPTGPRGYRGPYLSELPTNPSTSKPDWGYDPATGRVS” here?
A: 0.432

Q: With “HMDSAFVSDIRDAFDEAGVDSYRFFGTHSFKRGGVQLYRLLGVSDQEIKERGHWQTFSAYFAYVQA” as the sequence, how does the “soluble fraction (log2)” value read?
A: 0.164

Q: Which “soluble fraction (log2)” value does the source give for “HMDSESGAIIRRAVAQLAPKFRSTIVLRLIEGYSTEETAQILQLPVGTVLSRLARAKVQLMNLLTPYKEL” here?
A: -0.0893

Q: With “HMDSIDIDAETKSLGPNAPQIIKGIKEWGQGLVAKGVWSDQDFEEFKVFAATANGINALNKVRKFY” as the sequence, how does the “soluble fraction (log2)” value read?
A: -0.037

Q: With “HMDSIDVQQKKLLTDIELGNIEGIKLFLKRHNNTINFLTIKGFHPLVYAVRNNNMEIVNLFLTT” as the sequence, how does the “soluble fraction (log2)” value read?
A: 0.149

Q: Which “soluble fraction (log2)” value does the source give for “HMDSIGTQIRKLREEAEMPLRKLSALLDIDQSTLSKIERDERRANTQMIEQIAKIFKVNKEQLLVA” here?
A: -0.77

Q: For “HMDSKPNDLLFVYVSQLIRSLTLNSSKKDSELADELEVSISQIRIWLKKLINEQLIVKESKPVKYRWKG”, which “soluble fraction (log2)” value is on record?
A: -2.84

Q: Which “soluble fraction (log2)” value does the source give for “HMDSLARKTVNGAEFYIYPVESAEGFYSLRRKFGVSQEEVIKYNPSAQNGLKSGQVLLIPVT” here?
A: -0.298

Q: For “HMDSLQDFAYEEIKKRIQNGEYAPGTKLNTQEISDSLGISRSPVLAAINRLIALGLVEATPRKGTTVA”, which “soluble fraction (log2)” value is on record?
A: -0.116

Q: Which “soluble fraction (log2)” value does the source give for “HMDSLSGQQGRVLEEINGFLQTGKVLLNGMEWSAVSKQPEDILPVDTEVVVVRVEGAHLVVKKA” here?
A: -0.286

Q: Which “soluble fraction (log2)” value does the source give for “HMDSPRITMDQLRIGLYVYLDLTWFQHPFAFSHFKINSEDQIKTILGLGLKSVRYDPALSDPV” here?
A: -2.91

Q: With “HMDSQSVFADLVKSLSQKIASIPVWFEYTKNEQYDLISSYVSAKLKDLGVEFSQEEKEKFITMFMNS” as the sequence, how does the “soluble fraction (log2)” value read?
A: -0.609

Q: Which “soluble fraction (log2)” value does the source give for “HMDSRQIIAALQARYADETGITALKIKFNNVLGYFVDVPARYGDPLMKPPLSETFIHRQTLASNVRF” here?
A: -0.0679

Q: With “HMDSSITLMRMYIPKGHNWENKLISDVSMPTNSLALMIKRNGTTIIPKGDTMILAKDTLILSVPSYEPS” as the sequence, how does the “soluble fraction (log2)” value read?
A: -2.6

Q: Which “soluble fraction (log2)” value does the source give for “HMDSSNLSLIAGVGPTIEKKLRAAGITSWEQIAAWTEADVAKYDEELNLRGRITRDEWIEQAKELLAGKPP” here?
A: 0.0267

Q: For “HMDSTLDLVATQGGRLDQVLAEMIPEHSRNRLQHWIKAGRVLVDGQPVLEPKHKIYGGEDLAVRVD”, which “soluble fraction (log2)” value is on record?
A: 0.215

Q: With “HMDSVSAVRTTHLNSYVLLLEKDGMAAATISRYIASMKGFFEYLFREHMIEEDPAFTLKPPKV” as the sequence, how does the “soluble fraction (log2)” value read?
A: 0.009

Q: Which “soluble fraction (log2)” value does the source give for “HMDSVVPNVVGMTAEKANKALTDAGLNVKITGATIGSGAVVHSQSIPAGTVTSKGTVVSIEMRFAAAEGD” here?
A: -0.242

Q: Which “soluble fraction (log2)” value does the source give for “HMDSYSILGIEKESSMEDIEKAYIDKISKIKKEVKNEKNAAAFEAVLTKAYNDILSQKENISEEQELAE” here?
A: 0.0885

Q: Which “soluble fraction (log2)” value does the source give for “HMDTAGSVAIVSKSVIENGFGEIKYKGTYFKAQSDVYIPKDQMVKVIGKGDEQGSFLIVEKLN” here?
A: 0.0706

Q: With “HMDTIASESVRNRIEELISNENPKKPLSDQALVKMLQEFDIKIARRTVAKYREMLKIPPSSKRKQV” as the sequence, how does the “soluble fraction (log2)” value read?
A: -0.265

Q: With “HMDTIGSKVLAFLAGNLLDPTPFNYRFGYLYLNRTSKVIVEETDTYIDSGMRMTQEAVAEIMQKFAQ” as the sequence, how does the “soluble fraction (log2)” value read?
A: -4.12

Q: For “HMDTITMAGERYAVSDLEKVSGDIFEKAFGFEIDPKTADAKDVLPTMPKSDVDLFKKLSGIKP”, which “soluble fraction (log2)” value is on record?
A: 0.401

Q: For “HMDTIYPFNPNFIDDYKGYVLGLNTNEIDRLLKYRSKGNWINSAEDFKKVTGIDDALLNKLSKSFKFPDWL”, which “soluble fraction (log2)” value is on record?
A: -1.81

Q: For “HMDTLRPLGRYQNVHLTKQELTALQSEFSDWSERIERLSSYMASTGRKYQNHAATIRLWAEKDK”, which “soluble fraction (log2)” value is on record?
A: 0.0841

Q: For “HMDTMINLIGLNLKKAKKELSNLGVNVKKVRYKKSSVYDEGVVIDQSIEAGRNIKNGDFITITVSSGKA”, which “soluble fraction (log2)” value is on record?
A: -0.473

Q: For “HMDTNEPFAQLQLRFTDPIQYDYEVIRPVVLFSQSVTDRSDETEMPRTTVREKARQFVTEGMLGLVDK”, which “soluble fraction (log2)” value is on record?
A: 0.166

Q: Which “soluble fraction (log2)” value does the source give for “HMDTNTIIGLRIKALRTEKKYTLKYLSENSGLSIGFLSQLERGMTSVAIDSLDKISKVLDVELSSFFN” here?
A: -3.05

Q: Which “soluble fraction (log2)” value does the source give for “HMDTPMQEAVLQRLRDKVAQAAAGSKLPTVRQLIADYGVGQHVIQAALEKLRTEGLITSHVGKGTFVG” here?
A: 0.325

Q: With “HMDTPMYMAIIEEVRFQIANEILKEGEQLPSIRNLAKTLKVSVITVKRAYKELEEAGYITTIPAKGSKVS” as the sequence, how does the “soluble fraction (log2)” value read?
A: -1.16

Q: For “HMDTQKYDLNDDGRFDVQDVTYLQIKIAGDGELTDNQKKIADYNNDGKIDVQDVTSAQMLIS”, which “soluble fraction (log2)” value is on record?
A: 0.023

Q: With “HMDTSADEVKQLIASFVEQEDKRKPLSDQKIVELLAEKEQKISRRTVAKYRDALNIPSSSKRKRF” as the sequence, how does the “soluble fraction (log2)” value read?
A: 0.469

Q: With “HMDTSISHLVGRTGEAVTDLRPAGTVMIDGELYDARATEGFIEKGEIVKAIKYQYGQLNVRRVSK” as the sequence, how does the “soluble fraction (log2)” value read?
A: 0.00609

Q: With “HMDTVSYSTLLRDIDAKEIKQLDLVPGRREVRVQYNDGRRVTVPVFANDNQILRAAESSGTPLTVV” as the sequence, how does the “soluble fraction (log2)” value read?
A: 0.0297

Q: With “HMDVADITGTRKAAILLLTMDEELSKELLKEFERHEIEAIGKEIANIKYIPENIVKQVHSEFLKNINKS” as the sequence, how does the “soluble fraction (log2)” value read?
A: -0.282

Q: For “HMDVFTAKTASHIQELREKLGQQAVFGRSDVQNALGLKATRSSALLREMAEHGIIEPVTGYGKGRYHFRS”, which “soluble fraction (log2)” value is on record?
A: 0.204

Q: With “HMDVIDDAQAMEIALEDAGLSMDDLDRYELELHTKRSELVYSIELKSGTEEYEYDLRAADGTILKRDTDF” as the sequence, how does the “soluble fraction (log2)” value read?
A: 0.0166

Q: Which “soluble fraction (log2)” value does the source give for “HMDVLDVADNVNDDMSFADAFAAARSEVGAGGIFYWHGKAYGTYYENEWAGMSEEDKADYWDAVARTTS” here?
A: -0.144

Q: With “HMDVLSPEEWIEFRTAYNNNRYISQYGSKGATIEDDYATRLAMIGGKESYYFLNDPRWTEPGYGNLK” as the sequence, how does the “soluble fraction (log2)” value read?
A: -0.5

Q: Which “soluble fraction (log2)” value does the source give for “HMDVMNEIQQKAFDIYIQSASLKNDFTPISERALAKKLHDMGLKSSMSAIGRWKKKFGWVQSLQNKVTLA” here?
A: -0.173

Q: With “HMDVNKDLLGETLEKAKSYKADDWRKASYEALQKAIVEAEAVYKDEEADQVAVDRKVAALNKAINNLEAKG” as the sequence, how does the “soluble fraction (log2)” value read?
A: 0.475

Q: Which “soluble fraction (log2)” value does the source give for “HMDVNPETLSYYIERADISLDELRTSVKGIDLFLTGEKQPTFNQISNIAKKLNIPTGLLLINKPIEI” here?
A: -0.645

Q: Which “soluble fraction (log2)” value does the source give for “HMDVNSRIRQFLKKMKITVQTFESSIGKTNGYIAHTKSPTAGVLAEIAKVYPDLNLDWLITGEGEMLKN” here?
A: -1.42

Q: For “HMDVPTSSITEVKKSPMDVFAQARKAETGVYIFNREKIAGVMLTKEQYEALVEELNTLRDTL”, which “soluble fraction (log2)” value is on record?
A: -0.68

Q: Which “soluble fraction (log2)” value does the source give for “HMDVQEILGALSPDEKAAIGQLTSGEKHIDQIIAATRLPAARITSALTLLQIKGYVRALPGKRFSLTEKQ” here?
A: -1.87

Q: With “HMDVQPTTTKTMFYTVQQGETLFSISRKFGISVEEITKKNPLASSGLTVGMELLLPEKKEINSTIQS” as the sequence, how does the “soluble fraction (log2)” value read?
A: 0.0149
